# Measured values published in patent EP1951759B1 (ELI LILLY AND COMPANY, dated 2010).
# Biological target: T1, soluble EGFR (sEGFR): amino acids 1-619 of mature human EGFR with (Gly)4Ser linker and (His)6 tag (human, UniProt P00533 25-643, biotinylated with Sulfo-NHS-LC-Biotin (B-sEGFR) in the filter lift and the capture ELISA)
# T1 construct: range 25-643; also called B-sEGFR; biotinylated sEGFR
# Experiment: KinExA; calculated as Kd x kon
binder,measurement,value
"full-length monoclonal antibody VH4.15 (antibody, V domains shown, Full-length antibody with human Fc) VH: QVQLQESGPGLVKPSETLSLTCTVSGFSLTNYGVHWIRQPPGKGLEWIGNIWSGGNTDYNTPFTSRVTISVDTSKNQFSLKLSSVTAADTAVYYCARALDYYDYDYAYWGQGTMVTVSS VL: EIVLTQSPDFQSVTPKEKVTITCRASYSIGTNIHWYQQKPDQSPKLLIKYASESISGVPSRFSGSGSGTDFTLTINSLEAEDAATYYCQQNNEWPTSFGGGTKVEIK",koff,1.46e-06 s⁻¹
